Assay results as given in article PMC7374754, “Selection of mutant µplasmin for amyloid-β cleavage in vivo” (Scientific Reports, 2020).

Target: human µPlm P642A (human)
Assay: cell-based or functional assay

B1: human alpha-2 antiplasmin (α2-AP), mature (natural protein, UniProt P08697-1 40-491, looked up)
chain: NQEQVSPLTLLKLGNQEPGGQTALKSPPGVCSRDPTPEQTHRLARAMMAFTADLFSLVAQTSTCPNLILSPLSVALALSHLALGAQNHTLQRLQQVLHAGSGPCLPHLLSRLCQDLGPGAFRLAARMYLQKGFPIKEDFLEQSEQLFGAKPVSLTGKQEDDLANINQWVKEATEGKIQEFLSGLPEDTVLLLLNAIHFQGFWRNKFDPSLTQRDSFHLDEQFTVPVEMMQARTYPLRWFLLEQPEIQVAHFPFKNNMSFVVLVPTHFEWNVSQVLANLSWDTLHPPLVWERPTKVRLPKLYLKHQMDLVATLSQLGLQELFQAPDLRGISEQSLVVSGVQHQSTLELSEVGVEAAAATSIAMSRMSLSSFSVNRPFLFFIFEDTTGLPLFVGSVRNPNPSAPRELKEQQDSPGNKDFLQSLKGFPRGDKLFGPDLKLVPPMEEDYPQFGSPK
IC50 of α2-AP inhibition of amidolytic activity, fold relative to the wild-type: 2 fold of wild type
